# In the supplement of paper PMC6757056:
# ± gives the standard deviation of the averaged measurements.
# B1: library; a variant is named by its letters at N, in order (parent)
# chain: GCUGUCACCGGUGCUUGGUACGUUAUAUUCAGCCGGUCUGAUGAGUCUNNNNNNAGACGAAACAGC
# How the values were obtained:
# (6R,S)-folinic acid [1] = variants of: B1; test: FACS-Seq fitted mean relative fluorescence mCherry/BFP without ligand (log10 relative fluorescence); HEK293T overexpressing SLC46A1; higher = higher reporter protein expression; conditions: without (6R,S)-folinic acid; ligand present: no
# How it was run: (§1)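 To measure fluorescence, a normal distribution was fitted to read counts across sorted bins. The reporter libraries were HEK293T cells transduced by lentivirus with mCherry under ribozyme-switch control and an EF1α-BFP marker, enriched and then kept with or without ligand for 48 h. Sorting used 6 mCherry/BFP bins, and bin genomic DNA was PCR-amplified and sequenced on MiSeq. Fitted means of log10(mCherry/BFP) were scaled to five spiked-in control ribozymes.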
# (6R,S)-folinic acid [2] = variants of: B1; test: normalized RNA/DNA level without ligand (relative to sTRSVctl = 100) (log10 (% of sTRSVctl)); HEK293T overexpressing SLC46A1; higher = less ribozyme self-cleavage, higher mRNA level; conditions: without (6R,S)-folinic acid; ligand present: no
# Procedure: (§2)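 Hammerhead (sTRSV) ribozyme switch libraries with a ligand aptamer grafted on stem I and a randomized N4-6 loop II, cloned into the 3' UTR of mCherry and transiently transfected into HEK293T cells; RNA-Seq 72 h post transfection with ligand added 1 h before transfection; RNA read count / plasmid DNA read count normalized to the non-cleaving sTRSVctl (x100), log10; sequences with >100 DNA reads. FACS-Seq: lentiviral library sorted into 6 bins after 48 h ligand, log-normal fit mean of mCherry/BFP scaled to controls. Printed sequences are partial switch sequences.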
# (6R,S)-folinic acid [3] = variants of: B1; test: FACS-Seq fitted mean relative fluorescence mCherry/BFP with ligand (log10 relative fluorescence); HEK293T overexpressing SLC46A1; ligand concentration (+) FACS-Seq: 6 mM; higher = higher reporter protein expression; conditions: with (6R,S)-folinic acid; ligand present: yes
# How it was run: as §1
# (6R,S)-folinic acid [4] = variants of: B1; test: normalized RNA/DNA level with ligand (relative to sTRSVctl = 100) (log10 (% of sTRSVctl)); HEK293T overexpressing SLC46A1; ligand concentration (+) RNA-Seq: 6 mM; higher = less ribozyme self-cleavage, higher mRNA level; conditions: with (6R,S)-folinic acid; ligand present: yes
# Procedure: as §2
Variant,"FACS-Seq fitted mean (log10) ((6R,S)-folinic acid [1])","normalized RNA/DNA level without ligand (log10) ((6R,S)-folinic acid [2])","FACS-Seq fitted mean (log10) ((6R,S)-folinic acid [3])","normalized RNA/DNA level with ligand (log10) ((6R,S)-folinic acid [4])"
GACGUA,0.251 ± 0.023,1.9997 ± 0.00027,0.131 ± 0.26,2.03 ± 0.038
GACGAU,0.612 ± 0.086,1.954 ± 0.0091,0.648 ± 0.068,2 ± 0.037
GACGAG,-0.054 ± 0.034,1.907 ± 0.0022,0.319 ± 0.29,2.01 ± 0.037
GACGAA,0.551 ± 0.09,1.963 ± 0.0039,0.69 ± 0.21,2 ± 0.04
UAGCAG,0.207 ± 0.14,1.755 ± 0.0028,0.401 ± 0.18,1.957 ± 0.019
UAGCAU,0.36 ± 0.07,1.942 ± 0.0083,0.328 ± 0.2,2 ± 0.042
AACUCG,0.22 ± 0.034,1.998 ± 0.014,0.302 ± 0.52,1.99 ± 0.026
GACUCC,0.513 ± 0.089,2.053 ± 0.012,0.583 ± 0.11,2.06 ± 0.013
AAGGCC,0.18 ± 0.073,2.059 ± 0.012,0.288 ± 0.18,2.04 ± 0.081
GACUAC,0.495 ± 0.024,2.041 ± 0.011,0.191 ± 0.19,2.066 ± 0.016
GACUAG,0.271 ± 0.048,1.934 ± 0.019,0.493 ± 0.089,2 ± 0.033
GACUAU,0.375 ± 0.083,1.9961 ± 0.00078,0.557 ± 0.24,2.002 ± 0.0044
GAGUAC,0.375 ± 0.091,1.952 ± 0.012,0.311 ± 0.16,2 ± 0.033
GAGUAA,0.434 ± 0.18,1.9346 ± 0.0017,0.44 ± 0.3,1.99 ± 0.029
GAGUAG,0.282 ± 0.0024,1.936 ± 0.017,0.0667 ± 0.095,1.99 ± 0.034
AACUAC,0.381 ± 0.012,2 ± 0.021,0.181 ± 0.25,2.005 ± 0.02
AAGACG,0.519 ± 0.038,1.92 ± 0.0073,0.622 ± 0.38,2 ± 0.058
AAGACA,0.531 ± 0.012,1.985 ± 0.0083,0.754 ± 0.13,2.01 ± 0.023
UACCGU,0.352 ± 0.017,1.989 ± 0.0026,0.431 ± 0.11,2.02 ± 0.048
UACCGG,0.355 ± 0.059,1.982 ± 0.019,0.676 ± 0.1,2.004 ± 0.0069
CACGUA,0.476 ± 0.1,1.989 ± 0.019,0.649 ± 0.35,2.01 ± 0.025
AAGGGU,-0.0258 ± 0.095,1.952 ± 0.0044,-0.308 ± 0.14,2.02 ± 0.032
AAGGGA,0.125 ± 0.041,1.949 ± 0.0036,0.0354 ± 0.14,2.03 ± 0.03
CAGAGG,-0.0517 ± 0.073,1.9 ± 0.016,0.0689 ± 0.4,2.002 ± 0.0054

Variant,"FACS-Seq fitted mean (log10) ((6R,S)-folinic acid [1])","normalized RNA/DNA level without ligand (log10) ((6R,S)-folinic acid [2])","FACS-Seq fitted mean (log10) ((6R,S)-folinic acid [3])","normalized RNA/DNA level with ligand (log10) ((6R,S)-folinic acid [4])"
GAGGCA,0.286 ± 0.031,2.017 ± 0.0044,0.296 ± 0.25,2.05 ± 0.026
UACGUG,0.0454 ± 0.021,1.7 ± 0.018,0.518 ± 0.16,1.946 ± 0.011
AAGAGA,0.0158 ± 0.096,1.929 ± 0.0075,0.157 ± 0.024,2.03 ± 0.049
AAGAGG,0.589 ± 0.041,1.843 ± 0.0052,0.632 ± 0.11,1.99 ± 0.021
AAGAGU,0.413 ± 0.019,1.924 ± 0.0098,0.369 ± 0.0072,2.02 ± 0.047
UAGUAA,0.0937 ± 0.063,1.937 ± 0.009,0.531 ± 0.11,1.995 ± 0.016
UAGUAG,0.108 ± 0.076,1.68 ± 0.011,0.525 ± 0.14,1.93 ± 0.036
UAGUAU,0.347 ± 0.059,1.931 ± 0.0038,0.553 ± 0.11,2.006 ± 0.018
CAGCUG,0.118 ± 0.025,2.073 ± 0.01,0.1 ± 0.12,2.06 ± 0.022
UAGCGG,-0.127 ± 0.027,1.671 ± 0.0027,0.217 ± 0.06,1.96 ± 0.023
UAGCCU,0.641 ± 0.044,2.02 ± 0.045,0.19 ± 0.0051,2.04 ± 0.037
UAGCCG,0.635 ± 0.13,1.86 ± 0.036,0.409 ± 0.069,1.99 ± 0.041
AACGAG,0.367 ± 0.0092,1.82 ± 0.032,0.501 ± 0.065,1.984 ± 0.01
AACGAA,0.105 ± 0.2,1.9508 ± 0.00076,0.0527 ± 0.083,1.99 ± 0.045
CAGAAA,0.257 ± 0.038,1.944 ± 0.0067,0.441 ± 0.2,1.97 ± 0.043
CAGAAU,0.372 ± 0.044,1.921 ± 0.0042,0.495 ± 0.24,1.951 ± 0.0096
AAGAAC,0.369 ± 0.066,1.985 ± 0.012,0.624 ± 0.1,2 ± 0.038
AAGAAG,0.22 ± 0.028,1.8593 ± 0.00099,0.315 ± 0.053,2 ± 0.052
AAGAAA,0.107 ± 0.0018,1.935 ± 0.0037,0.0952 ± 0.071,1.99 ± 0.021
CAGCCU,0.13 ± 0.12,2.052 ± 0.016,-0.235 ± 0.22,2.05 ± 0.061
AACUGG,0.3585 ± 0.0022,1.936 ± 0.013,0.657 ± 0.038,2 ± 0.07
AACUGA,0.445 ± 0.11,2.008 ± 0.0069,0.455 ± 0.17,2.02 ± 0.038
UAGAUG,0.3 ± 0.084,1.702 ± 0.0024,0.477 ± 0.13,1.97 ± 0.043
CAGGUG,0.231 ± 0.12,1.96 ± 0.025,0.385 ± 0.089,1.992 ± 0.016

Variant,"FACS-Seq fitted mean (log10) ((6R,S)-folinic acid [1])","normalized RNA/DNA level without ligand (log10) ((6R,S)-folinic acid [2])","FACS-Seq fitted mean (log10) ((6R,S)-folinic acid [3])","normalized RNA/DNA level with ligand (log10) ((6R,S)-folinic acid [4])"
CAGGUA,0.0884 ± 0.016,1.667 ± 0.0023,0.0948 ± 0.22,1.806 ± 0.013
UACUUG,0.275 ± 0.057,1.78 ± 0.022,0.607 ± 0.16,1.98 ± 0.045
GAGGUU,-0.16 ± 0.053,1.991 ± 0.0089,-0.382 ± 0.15,2 ± 0.027
GAGGUG,0.324 ± 0.045,1.967 ± 0.0026,0.505 ± 0.25,2.04 ± 0.043
GAGGUA,0.345 ± 0.029,1.844 ± 0.015,0.341 ± 0.17,1.92 ± 0.033
GAGAAC,0.435 ± 0.033,1.964 ± 0.0051,0.598 ± 0.32,2.02 ± 0.045
GAGAAA,0.129 ± 0.016,1.958 ± 0.011,0.0474 ± 0.047,1.996 ± 0.01
GAGAAG,0.0112 ± 0.083,1.905 ± 0.0077,0.219 ± 0.32,2.02 ± 0.029
CAGGAC,0.301 ± 0.073,1.97 ± 0.022,0.0891 ± 0.079,1.97 ± 0.078
GAGCUA,0.516 ± 0.2,2.0209 ± 0.0014,0.415 ± 0.15,2.04 ± 0.035
AACUUA,0.0993 ± 0.1,1.96 ± 0.032,0.0419 ± 0.12,1.98 ± 0.033
AACUUG,0.321 ± 0.0087,1.94 ± 0.0095,0.658 ± 0.031,1.996 ± 0.0088
CACUGG,0.801 ± 0.11,1.962 ± 0.013,0.687 ± 0.052,2.03 ± 0.021
CACUGA,0.463 ± 0.077,2.012 ± 0.0079,0.325 ± 0.16,2.04 ± 0.028
AAGGUG,0.462 ± 0.049,1.827 ± 0.011,0.597 ± 0.51,1.98 ± 0.04
AAGGUC,0.209 ± 0.03,2.03 ± 0.013,0.178 ± 0.099,2 ± 0.027
AAGGUA,0.34 ± 0.014,1.74 ± 0.024,0.228 ± 0.14,1.83 ± 0.025
UACGAG,0.31 ± 0.029,1.689 ± 0.014,0.472 ± 0.14,1.953 ± 0.013
UACGAC,-0.293 ± 0.061,2.013 ± 0.0052,-0.283 ± 0.015,2.01 ± 0.039
UACGAU,0.175 ± 0.046,1.9462 ± 0.0017,0.146 ± 0.33,2.02 ± 0.023
GAGCAU,0.407 ± 0.06,1.979 ± 0.015,0.546 ± 0.41,2.016 ± 0.015
GAGCAC,0.00982 ± 0.061,2.002 ± 0.02,-0.159 ± 0.38,2.042 ± 0.0057
GAGCAG,0.523 ± 0.06,1.96 ± 0.004,0.688 ± 0.3,2.02 ± 0.058
CAGCAU,0.411 ± 0.13,1.96 ± 0.014,0.546 ± 0.21,2.01 ± 0.027
